These are literature values, as cited in paper PMC5874815.

The data set addresses EGFR (Homo sapiens) (UniProt P00533).

With EGF (from UniProt P01133), the Kd (usually the concentration at which binding is half-saturated) was 2 nM.
